{"source": "the supplement of paper PMC10567573", "parents": {"B1": {"name": "LARP4 (parent)", "chain": "WTVANMEEIKKLTTDPDLILEVLR"}}, "data": [{"variants_of": "B1", "assay": "protein stability index of a GFP-peptide fusion (GPS, HEK-293T) (PSI 1-6); higher = more stable", "details": "c terminus: a fixed tail appended", "values": [{"variant": "WTVANMEEEKKLTTDPDLILEVLR", "note": "[I9E]", "protein stability index": 2.75}, {"variant": "WTVANMEEKKKLTTDPDLILEVLR", "note": "[I9K]", "protein stability index": 2.5}, {"variant": "WTVANMEEPKKLTTDPDLILEVLR", "note": "[I9P]", "protein stability index": 2.49}, {"variant": "WTVANMEERKKLTTDPDLILEVLR", "note": "[I9R]", "protein stability index": 2.5}, {"variant": "WTVANMEETKKLTTDPDLILEVLR", "note": "[I9T]", "protein stability index": 1.71}, {"variant": "WTVANMEEVKKLTTDPDLILEVLR", "note": "[I9V]", "protein stability index": 2.72}, {"variant": "WTVANMEEQKKLTTDPDLILEVLR", "note": "[I9Q]", "protein stability index": 2.14}, {"variant": "WTVANMEEAKKLTTDPDLILEVLR", "note": "[I9A]", "protein stability index": 2.38}, {"variant": "WTVANMEEHKKLTTDPDLILEVLR", "note": "[I9H]", "protein stability index": 2.65}, {"variant": "WTVANMEEDKKLTTDPDLILEVLR", "note": "[I9D]", "protein stability index": 2.76}, {"variant": "WTVANMEECKKLTTDPDLILEVLR", "note": "[I9C]", "protein stability index": 2.27}, {"variant": "WTVANMEEWKKLTTDPDLILEVLR", "note": "[I9W]", "protein stability index": 2.21}, {"variant": "WTVANMEEFKKLTTDPDLILEVLR", "note": "[I9F]", "protein stability index": 1.87}, {"variant": "WTVANMEEGKKLTTDPDLILEVLR", "note": "[I9G]", "protein stability index": 2.43}, {"variant": "WTVANMEEYKKLTTDPDLILEVLR", "note": "[I9Y]", "protein stability index": 2.31}, {"variant": "WTVANMEELKKLTTDPDLILEVLR", "note": "[I9L]", "protein stability index": 2.16}, {"variant": "WTVANMEENKKLTTDPDLILEVLR", "note": "[I9N]", "protein stability index": 1.93}, {"variant": "WTVANMEESKKLTTDPDLILEVLR", "note": "[I9S]", "protein stability index": 1.85}, {"variant": "WTVANMEEMKKLTTDPDLILEVLR", "note": "[I9M]", "protein stability index": 2.3}, {"variant": "WTVANMEEIKKLTTAPDLILEVLR", "note": "[D15A]", "protein stability index": 1.69}, {"variant": "WTVANMEEIKKLTTYPDLILEVLR", "note": "[D15Y]", "protein stability index": 1.38}, {"variant": "WTVANMEEIKKLTTQPDLILEVLR", "note": "[D15Q]", "protein stability index": 2.1}, {"variant": "WTVANMEEIKKLTTMPDLILEVLR", "note": "[D15M]", "protein stability index": 2.26}, {"variant": "WTVANMEEIKKLTTVPDLILEVLR", "note": "[D15V]", "protein stability index": 1.59}, {"variant": "WTVANMEEIKKLTTPPDLILEVLR", "note": "[D15P]", "protein stability index": 1.97}, {"variant": "WTVANMEEIKKLTTCPDLILEVLR", "note": "[D15C]", "protein stability index": 1.53}, {"variant": "WTVANMEEIKKLTTKPDLILEVLR", "note": "[D15K]", "protein stability index": 2.05}, {"variant": "WTVANMEEIKKLTTNPDLILEVLR", "note": "[D15N]", "protein stability index": 2.14}, {"variant": "WTVANMEEIKKLTTWPDLILEVLR", "note": "[D15W]", "protein stability index": 1.89}, {"variant": "WTVANMEEIKKLTTRPDLILEVLR", "note": "[D15R]", "protein stability index": 1.4}, {"variant": "WTVANMEEIKKLTTSPDLILEVLR", "note": "[D15S]", "protein stability index": 1.53}, {"variant": "WTVANMEEIKKLTTGPDLILEVLR", "note": "[D15G]", "protein stability index": 2.05}, {"variant": "WTVANMEEIKKLTTHPDLILEVLR", "note": "[D15H]", "protein stability index": 2.21}, {"variant": "WTVANMEEIKKLTTFPDLILEVLR", "note": "[D15F]", "protein stability index": 1.7}, {"variant": "WTVANMEEIKKLTTEPDLILEVLR", "note": "[D15E]", "protein stability index": 3.16}, {"variant": "WTVANMEEIKKLTTLPDLILEVLR", "note": "[D15L]", "protein stability index": 2.1}, {"variant": "WTVANMEEIKKLTTTPDLILEVLR", "note": "[D15T]", "protein stability index": 2}, {"variant": "WTVANMEEIKKLTTIPDLILEVLR", "note": "[D15I]", "protein stability index": 1.18}, {"variant": "WTVANMEEIKKLTTDADLILEVLR", "note": "[P16A]", "protein stability index": 1.55}, {"variant": "WTVANMEEIKKLTTDEDLILEVLR", "note": "[P16E]", "protein stability index": 2.22}, {"variant": "WTVANMEEIKKLTTDCDLILEVLR", "note": "[P16C]", "protein stability index": 1.75}, {"variant": "WTVANMEEIKKLTTDFDLILEVLR", "note": "[P16F]", "protein stability index": 1.63}, {"variant": "WTVANMEEIKKLTTDHDLILEVLR", "note": "[P16H]", "protein stability index": 1.63}, {"variant": "WTVANMEEIKKLTTDKDLILEVLR", "note": "[P16K]", "protein stability index": 1.59}, {"variant": "WTVANMEEIKKLTTDDDLILEVLR", "note": "[P16D]", "protein stability index": 2.38}, {"variant": "WTVANMEEIKKLTTDLDLILEVLR", "note": "[P16L]", "protein stability index": 2.21}, {"variant": "WTVANMEEIKKLTTDIDLILEVLR", "note": "[P16I]", "protein stability index": 1.67}, {"variant": "WTVANMEEIKKSTTDPDLILEVLR", "note": "[L12S]", "protein stability index": 2.97}, {"variant": "WTVANMEEIKKWTTDPDLILEVLR", "note": "[L12W]", "protein stability index": 2.46}, {"variant": "WTVANMEEIKKDTTDPDLILEVLR", "note": "[L12D]", "protein stability index": 3.37}, {"variant": "WTVANMEEIKKHTTDPDLILEVLR", "note": "[L12H]", "protein stability index": 3.11}, {"variant": "WTVANMEEIKKITTDPDLILEVLR", "note": "[L12I]", "protein stability index": 2.23}, {"variant": "WTVANMEEIKKYTTDPDLILEVLR", "note": "[L12Y]", "protein stability index": 2.62}, {"variant": "WTVANMEEIKKATTDPDLILEVLR", "note": "[L12A]", "protein stability index": 2.17}, {"variant": "WTVANMEEIKKTTTDPDLILEVLR", "note": "[L12T]", "protein stability index": 2.22}, {"variant": "WTVANMEEIKKVTTDPDLILEVLR", "note": "[L12V]", "protein stability index": 2.9}, {"variant": "WTVANMEEIKKQTTDPDLILEVLR", "note": "[L12Q]", "protein stability index": 3.09}, {"variant": "WTVANMEEIKKFTTDPDLILEVLR", "note": "[L12F]", "protein stability index": 2.97}, {"variant": "WTVANMEEIKKMTTDPDLILEVLR", "note": "[L12M]", "protein stability index": 2.06}, {"variant": "WTVANMEEIKKPTTDPDLILEVLR", "note": "[L12P]", "protein stability index": 2.26}, {"variant": "WTVANMEEIKKETTDPDLILEVLR", "note": "[L12E]", "protein stability index": 3.74}, {"variant": "WTVANMEEIKKGTTDPDLILEVLR", "note": "[L12G]", "protein stability index": 2.6}, {"variant": "WTVANMEEIKKNTTDPDLILEVLR", "note": "[L12N]", "protein stability index": 3.08}, {"variant": "WTVANMEEIKKRTTDPDLILEVLR", "note": "[L12R]", "protein stability index": 2.34}, {"variant": "WTVANMEEIKKKTTDPDLILEVLR", "note": "[L12K]", "protein stability index": 2.62}, {"variant": "WTVANMEEIKKCTTDPDLILEVLR", "note": "[L12C]", "protein stability index": 3.11}, {"variant": "WTVANMEEIKMLTTDPDLILEVLR", "note": "[K11M]", "protein stability index": 1.81}, {"variant": "WTVANMEEIKTLTTDPDLILEVLR", "note": "[K11T]", "protein stability index": 2.95}, {"variant": "WTVANMEEIKVLTTDPDLILEVLR", "note": "[K11V]", "protein stability index": 2.29}, {"variant": "WTVANMEEIKCLTTDPDLILEVLR", "note": "[K11C]", "protein stability index": 2.33}, {"variant": "WTVANMEEIKFLTTDPDLILEVLR", "note": "[K11F]", "protein stability index": 2.85}, {"variant": "WTVANMEEIKRLTTDPDLILEVLR", "note": "[K11R]", "protein stability index": 2.52}, {"variant": "WTVANMEEIKNLTTDPDLILEVLR", "note": "[K11N]", "protein stability index": 2.81}, {"variant": "WTVANMEEIKWLTTDPDLILEVLR", "note": "[K11W]", "protein stability index": 2.68}, {"variant": "WTVANMEEIKALTTDPDLILEVLR", "note": "[K11A]", "protein stability index": 1.7}, {"variant": "WTVANMEEIKSLTTDPDLILEVLR", "note": "[K11S]", "protein stability index": 2.8}, {"variant": "WTVANMEEIKILTTDPDLILEVLR", "note": "[K11I]", "protein stability index": 2.02}, {"variant": "WTVANMEEIKYLTTDPDLILEVLR", "note": "[K11Y]", "protein stability index": 3.77}, {"variant": "WTVANMEEIKELTTDPDLILEVLR", "note": "[K11E]", "protein stability index": 3.99}, {"variant": "WTVANMEEIKHLTTDPDLILEVLR", "note": "[K11H]", "protein stability index": 3.42}, {"variant": "WTVANMEEIKDLTTDPDLILEVLR", "note": "[K11D]", "protein stability index": 3.96}, {"variant": "WTVANMEEIKQLTTDPDLILEVLR", "note": "[K11Q]", "protein stability index": 2.58}, {"variant": "WTVANMEEIKGLTTDPDLILEVLR", "note": "[K11G]", "protein stability index": 2.22}, {"variant": "WTVANMEEIKLLTTDPDLILEVLR", "note": "[K11L]", "protein stability index": 2.13}, {"variant": "WTVANMEEIKPLTTDPDLILEVLR", "note": "[K11P]", "protein stability index": 2.46}, {"variant": "WTVANMESIKKLTTDPDLILEVLR", "note": "[E8S]", "protein stability index": 1.58}, {"variant": "WTVANMEMIKKLTTDPDLILEVLR", "note": "[E8M]", "protein stability index": 1.47}, {"variant": "WTVANMEPIKKLTTDPDLILEVLR", "note": "[E8P]", "protein stability index": 1.82}, {"variant": "WTVANMEDIKKLTTDPDLILEVLR", "note": "[E8D]", "protein stability index": 2.03}, {"variant": "WTVANMEIIKKLTTDPDLILEVLR", "note": "[E8I]", "protein stability index": 1.72}, {"variant": "WTVANMEVIKKLTTDPDLILEVLR", "note": "[E8V]", "protein stability index": 1.4}, {"variant": "WTVANMECIKKLTTDPDLILEVLR", "note": "[E8C]", "protein stability index": 2.25}, {"variant": "WTVANMEQIKKLTTDPDLILEVLR", "note": "[E8Q]", "protein stability index": 1.68}, {"variant": "WTVANMELIKKLTTDPDLILEVLR", "note": "[E8L]", "protein stability index": 3.14}]}]}
